Data taken from the RNAGym collection of RNA variant scans (doi:10.7554/elife.80360).

B1: HDV Ribozyme (parent)
chain: GGCCGGCAUGGUCCCAGCCUCCUCGCUGGCGCCGGCUGGGCAACAUUCCGAGGGGACCGUCCCCUCGGUAAUGGCGAAUGGGACCCA

Variants of: B1
Test: self-cleavage, relative activity (ratio to wild type); higher = more cleavage; co-transcriptional

In order of falling self-cleavage:
1. G40A C58U  1.18
2. G40A G55U  1.17
3. G40A C57U  1.13
4. G40A U60C  1.11
5. G40A A56G  1.11
6. G40A C85U  1.1
7. G40A C48G  1.06
8. G40A C57G  1.02
9. G39U G59U  1.02
10. G40A U60A  1
11. G40A G54U  0.971
12. G40A  0.962
13. G40A A87G  0.959
14. G40A C62A  0.95
15. G40A C48A  0.941
16. G40U G55C  0.937
17. G40U C41U  0.937
18. G40A C41G  0.937
19. G40A G50C  0.92
20. G40A G76A  0.918
21. G40A C58A  0.906
22. G40A C63U  0.895
23. G40A C41A  0.893
24. G40A C64A  0.89
25. G40U C49G  0.888
26. G40A G55A  0.882
27. G40A A56C  0.878
28. G40U G68U  0.858
29. G40A C63A  0.856
30. G40A C62U  0.853
31. G39U A51C  0.849
32. G40A G50U  0.842
33. G39U A51G  0.818
34. G40A C85G  0.807
35. G40U G76U  0.795
36. G40A A78G  0.795
37. G40U C63A  0.793
38. G40A C48U  0.793
39. G40U G76A  0.789
40. G39U G52A  0.772
41. G40U C48A  0.76
42. G40A U79G  0.755
43. G39U  0.727
44. G39U C66U  0.724
45. G39U G54U  0.722
46. G40U G55A  0.722
47. G40U G68A  0.722
48. G40U  0.717
49. G40A C44A  0.692
50. G40U A70U  0.69
51. G40U C86U  0.688
52. G40U C86A  0.682
53. G40A A45C  0.671
54. G39U G59C  0.671
55. G40U C48G  0.665
56. G39U G52U  0.66
57. G40U C48U  0.628
58. G40A A43G  0.623
59. G39U G54A  0.59
60. G39U C61A  0.589
61. G40A C44U  0.582
62. G40U G52U  0.576
63. G40A A83G  0.573
64. G40A A45U  0.563
65. G40U C86G  0.562
66. G39U U47A  0.554
67. G40A A42C  0.543
68. G39U G68C  0.532
69. G40A C64G  0.531
70. G40U G54C  0.513
71. G40A U79A  0.513
72. G39U C58G  0.506
73. G40A U72C  0.504
74. G40U G76C  0.492
75. G39U C84U  0.492
76. G39C U60A  0.481
77. G40U U47C  0.475
78. G39U C61G  0.464
79. G40U A77G  0.462
80. G40A C63G  0.46
81. G40U G68C  0.443
82. G40C G67C  0.439
83. G40C C48A  0.424
84. G39C U60C  0.415
85. G40A U79C  0.41
86. G40A A78U  0.404
87. G39C U69C  0.401
88. G39U A71G  0.383
89. G40C A56U  0.381
90. G40U A43C  0.374
91. G40U U46A  0.364
92. G40C C48G  0.35
93. G40C G55C  0.347
94. G40C G53U  0.337
95. G40C G53A  0.332
96. G40C G59U  0.326
97. G40C U65A  0.326
98. G39U A45U  0.325
99. G40C A87U  0.325
100. G39U U47G  0.323
101. G39C G55C  0.31
102. G39U A71C  0.308
103. G40A C44G  0.302
104. G40C  0.299
105. G39C G67U  0.277
106. G40A A83C  0.272
107. G40U C75U  0.271
108. G40C G50U  0.269
109. G40U G82A  0.256
110. G40C C61A  0.256
111. G39C G52U  0.253
112. G40A A83U  0.251
113. G39C G74U  0.251
114. G40C C66U  0.249
115. G39U A42G  0.249
116. G40C G68U  0.245
117. G40C A87C  0.245
118. G40C C64G  0.242
119. G40C C62A  0.237
120. G40C G73U  0.233
121. G40C G67A  0.23
122. G40C A71U  0.228
123. G40C G50C  0.225
124. G40C G50A  0.219
125. G39C G52A  0.218
126. G39U C44U  0.211
127. G40C G74U  0.202
128. G40C G68A  0.201
129. G39U A45C  0.196
130. G39C U79G  0.196
131. G40U A78U  0.191
132. G40C U79A  0.19
133. G39C C84A  0.19
134. G39C U60G  0.185
135. G40C G59A  0.179
136. G40U G80U  0.171
137. G40U G82U  0.171
138. G40C G53C  0.17
139. G40C C75G  0.166
140. G39C G74C  0.166
141. G40C A83G  0.163
142. G40C A71G  0.162
143. G40A C75U  0.157
144. G40U G82C  0.157
145. G39C U72C  0.155
146. G40U A43U  0.146
147. G40U C44U  0.143
148. G40C U79G  0.138
149. G40C C64A  0.138
150. G40U A78C  0.132
151. G39U U72A  0.13
152. G40C C85A  0.128
153. G39C U72G  0.128
154. G39C U79C  0.125
155. G40C G55A  0.121
156. G40U C75A  0.12
157. G40U C44A  0.107
158. G39U A77U  0.102
159. G39C G82C  0.0997
160. G39C G80C  0.0845
161. G40C C85U  0.0804
162. G40C G80C  0.0608
163. G39U U72C  0.0573
164. G39C G80A  0.0511
165. G39C C84G  0.0462
166. G40C C75A  0.0326
167. G40C C62G  0
